Experimental data taken from US20120258482A1, “PCNA […]” (INDIANA UNIVERSITY RESEARCH AND TECHNOLOGY CORPORATION, priority 2009, published 2012).

Test system: purified recombinant PCNA
Test: Vapor diffusion assay of anti-Flag immunoprecipitates with purified recombinant PCNA
Assay type: biochemical, human
Settings: anti-Flag immunoprecipitate from SK-Br-3 cells, 2 μg 6× His-PCNA
Experimental: Vapor diffusion assay. The assay was performed basically as previously described (Murray, E. D., Jr. & Clarke, S. J Biol Chem 259, 10722-10732 (1984). MCF7 breast cancer cell extracts were assayed 1-2 h in the presence of [^3H-methyl]-SAM (NEN). Following incubation, extracts were equilibrated with 100 mM NaOH with 2% SDS and spotted onto filter paper folded into an accordion pleat and placed into the neck of a vial above scintillation fluid. ^3H-methanol present in the scintillation fluid was measured the following day (See FIG. 1).
Protein expression and purification. HiTrap phenyl Sepharose HP and Superdex S200 columns were purchased from GE Biosciences. Chromatography was performed using a Biologic DuoFlow (BioRad). […] The CBP tag lacks both aspartic and glutamic acids. […] (Podust et al., Biochemistry 34, 8869-8875 (1995). A eukaryotic expression vector expressing a Flag-Arm1 fusion was transfected into and transiently expressed in SK-Br-3 cells with Fugene 6 (Roche). Anti-Flag immunoprecipitations were performed with Anti-Flag M2 Affintiy Gel (Sigma) and detected by Western analysis using anti-DDK antibodies (Origene). PIP-affinity beads were generated by covalently coupling synthetic p21 PIP peptide (Anaspec) to CH Sepharose (GE Biosciences). […]

B1: Flag-Arm1: Flag-tagged C6orf211 protein fusion, PCNA-dependent carboxyl methyltransferase (SEQ ID NO: 33) (protein, listed as Homo sapiens)
chain: MAVVPASLSGQDVGSFAYLTIKDRIPQILTKVIDTLHRHKSEFFEKHGEEGVEAEKKAISLLSKLRNELQTDKPFIPLVEKFVDTDIWNQYLEYQQSLLNESDGKSRWFYSPWLLVECYMYRRIHEAIIQSPPIDYFDVFKESKEQNFYGSQESIIALCTHLQQLIRTIEDLDENQLKDEFFKLLQISLWGNKCDLSLSGGESSSQNTNVLNSLEDLKPFILLNDMEHLWSLLSNCKKTREKASATRVYIVLDNSGFELVTDLILADFLLSSELATEVHFYGKTIPWFVSDTTIHDFNWLIEQVKHSNHKWMSKCGADWEEYIKMGKWVYHNHIFWTLPHEYCAMPQVAPDLYAELQKAHLILFKGDLNYRKLTGDRKWEFSVPFHQALNGFHPAPLCTIRTLKAEIQVGLQPGQGEQLLASEPSWWTTGKYGIFQYDGPL
modifications: Flag tag
  PCNA-dependent carboxyl methyltransferase activity: Significant levels
